Usually Kd stands for the equilibrium constant for the complex coming apart.

The target of the series is SARS-CoV-2 nucleocapsid N-terminal domain (N-NTD) (SARS-CoV-2, UniProt P0DTC9 44-180). Briefly: BLI. The note with it: protein: recombinant; tags: 6xHis-SUMO removed by SUMO protease; biotinylated for BLI; 15N-labeled for NMR; single strand.

In the case of AUAUGGAAGAGCCCUA (ssRNA) [ssRNA-16], the Kd was determined as 8.37 µM.

The record behind these values is publication PMC10051649, “Suramin Disturbs the Association of the N-Terminal Domain of SARS-CoV-2 Nucleocapsid Protein with RNA”.
